In patent publication US20190218277A1 (Chugai, published 2019):

B1: DG_3CH912-SG182/3CL-SK1 (antibody, human IgG1, kappa, V domains shown)
VH: QVQLVQSGPDVEKPGASVKVSCKASGYTFTSNYIHWVRQAPGQGLEWMGVINPRGGSRASAQKFQGRITMTRDTSTSTVYMELSSLRSEDTAVYYCARGGRALFYDSYTTPFDGGSWWFDPWGQGSLVTVSS
VL: DIQLTQSPSSLSASVGDRVTFTCQASQDIRKYLNWYQQKPGKAPKLLIYDASNLKTGVPSRFSGSGSGTDFTFTISSLQPEDVATYYCQQFDDLPITFGQGTRLQIKR
B2: DG_3CH-SG182/3CL563-SK1 (antibody, V domains shown)
VH: QVQLVQSGPDVEKPGASVKVSCKASGYTFTSNYIHWVRQAPGQGLEWMGVINPRGGSTASAQKFQGRITMTRDTSTSTVYMELSSLRSDDTAVYYCARGGRALFYDSYTTPRDGGSWWFDPWGQGSLVTVSS
VL: DIQLTQSPSSLSASVGDRVTFTCQASQDIRQYLNWYQQKPGKAPKLLIYDASNLKFGVPSRFSGSGSGTDFTFTISSLQPEDVATYYCQQFSALPITFGQGTRLQIKR
B3: DG_3CH955-SG182/3CL563-SK1 (antibody, human IgG1, kappa, V domains shown)
VH: QVQLVQSGPDVEKPGASVKVSCKASGYTFTSNYIHWVRQAPGQGLEWMGVINPRGGSRRSAQKFQGRITMTRDTSTSTVYMELSSLRSEDTAVYYCARGGRALFYDSYTTPRDLGSWWFDPWGQGSLVTVSS
VL: DIQLTQSPSSLSASVGDRVTFTCQASQDIRQYLNWYQQKPGKAPKLLIYDASNLKFGVPSRFSGSGSGTDFTFTISSLQPEDVATYYCQQFSALPITFGQGTRLQIKR
B4: DG_3CH955-SG182/3CL499-SK1 (antibody, human IgG1, kappa, V domains shown)
VH: QVQLVQSGPDVEKPGASVKVSCKASGYTFTSNYIHWVRQAPGQGLEWMGVINPRGGSRRSAQKFQGRITMTRDTSTSTVYMELSSLRSEDTAVYYCARGGRALFYDSYTTPRDLGSWWFDPWGQGSLVTVSS
VL: DIQLTQSPSSLSASVGDRVTFTCQASQDIRKYLNWYQQKPGKAPKLLIYDASNLKFGVPSRFSGSGSGTDFTFTISSLQPEDVATYYCQQFDALPITFGQGTRLQIKR
B5: DG_3CH953-SG182/3CL563-SK1 (antibody, human IgG1, kappa, V domains shown)
VH: QVQLVQSGPDVEKPGASVKVSCKASGYTFTSNYIHWVRQAPGQGLEWMGVINPRGGSRRSAQKFQGRITMTRDTSTSTVYMELSSLRSEDTAVYYCARGGRALFYDSYTTPFDGGSWWFDPWGQGSLVTVSS
VL: DIQLTQSPSSLSASVGDRVTFTCQASQDIRQYLNWYQQKPGKAPKLLIYDASNLKFGVPSRFSGSGSGTDFTFTISSLQPEDVATYYCQQFSALPITFGQGTRLQIKR
B6: DG_3CH-SG182/3CL499-SK1 (antibody, V domains shown)
VH: QVQLVQSGPDVEKPGASVKVSCKASGYTFTSNYIHWVRQAPGQGLEWMGVINPRGGSTASAQKFQGRITMTRDTSTSTVYMELSSLRSDDTAVYYCARGGRALFYDSYTTPRDGGSWWFDPWGQGSLVTVSS
VL: DIQLTQSPSSLSASVGDRVTFTCQASQDIRKYLNWYQQKPGKAPKLLIYDASNLKFGVPSRFSGSGSGTDFTFTISSLQPEDVATYYCQQFDALPITFGQGTRLQIKR
B7: Anti-CD154 antibody (SLAPH0336a/SLAPL0336a) with Fc variant LALA+KAES (SG1095) (antibody, human IgG1, kappa, L234A L235A)
heavy: EVQLVESGGGSVKPGGSLKLSCAASGFTFSDHYMYWVRQTPEKRLEWVAIISGGGSYTSYPDSMKGRFTISRDNAKNILHLQMSSLKSEDTAMYYCTRESNGKPGFAYWGQGTLVTVSAASTKGPSVFPLAPSSKSTSGGTAALGCLVKDYFPEPVTVSWNSGALTSGVHTFPAVLQSSGLYSLSSVVTVPSSSLGTQTYICNVNHKPSNTKVDKRVEPKSCDKTHTCPPCPAPEAAGGPSVFLFPPKPKDTLMISRTPEVTCVVVDVSHEDPEVKFNWYVDGVEVHNAKTKPREEQYNSTYRVVSVLTVLHQDWLNGKEYKCKVSNAALPAPISKTISKAKGQPREPQVYTLPPSREEMTKNQVSLTCLVKGFYPSDIAVEWESNGQPENNYKTTPPVLDSDGSFFLYSKLTVDKSRWQQGNVFSCSVMHEALHNHYTQKSLSLSP
light: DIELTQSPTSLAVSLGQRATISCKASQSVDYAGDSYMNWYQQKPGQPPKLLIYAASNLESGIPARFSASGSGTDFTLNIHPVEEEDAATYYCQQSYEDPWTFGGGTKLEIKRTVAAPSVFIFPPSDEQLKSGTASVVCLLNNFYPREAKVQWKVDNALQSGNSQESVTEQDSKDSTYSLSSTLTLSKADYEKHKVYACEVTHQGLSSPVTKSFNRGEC
B8: Anti-CD154 antibody (SLAPH0336a/SLAPL0336a) with Fc variant LALA+KMES (SG1098) (antibody, human IgG1, kappa, L234A L235A)
heavy: EVQLVESGGGSVKPGGSLKLSCAASGFTFSDHYMYWVRQTPEKRLEWVAIISGGGSYTSYPDSMKGRFTISRDNAKNILHLQMSSLKSEDTAMYYCTRESNGKPGFAYWGQGTLVTVSAASTKGPSVFPLAPSSKSTSGGTAALGCLVKDYFPEPVTVSWNSGALTSGVHTFPAVLQSSGLYSLSSVVTVPSSSLGTQTYICNVNHKPSNTKVDKRVEPKSCDKTHTCPPCPAPEAAGGPSVFLFPPKPKDTLMISRTPEVTCVVVDVSHEDPEVKFNWYVDGVEVHNAKTKPREEQYNSTYRVVSVLTVLHQDWLNGKEYKCKVSNMALPAPISKTISKAKGQPREPQVYTLPPSREEMTKNQVSLTCLVKGFYPSDIAVEWESNGQPENNYKTTPPVLDSDGSFFLYSKLTVDKSRWQQGNVFSCSVMHEALHNHYTQKSLSLSP
light: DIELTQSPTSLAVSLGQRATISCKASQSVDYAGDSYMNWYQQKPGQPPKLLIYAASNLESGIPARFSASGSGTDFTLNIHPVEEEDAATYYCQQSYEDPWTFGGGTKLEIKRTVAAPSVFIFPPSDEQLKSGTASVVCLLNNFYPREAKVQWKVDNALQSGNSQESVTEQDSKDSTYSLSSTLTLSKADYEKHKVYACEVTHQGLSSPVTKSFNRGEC
B9: Anti-CD154 antibody (SLAPH0336a/SLAPL0336a) with Fc variant LALA+KEES (SG1097) (antibody, human IgG1, kappa, L234A L235A)
heavy: EVQLVESGGGSVKPGGSLKLSCAASGFTFSDHYMYWVRQTPEKRLEWVAIISGGGSYTSYPDSMKGRFTISRDNAKNILHLQMSSLKSEDTAMYYCTRESNGKPGFAYWGQGTLVTVSAASTKGPSVFPLAPSSKSTSGGTAALGCLVKDYFPEPVTVSWNSGALTSGVHTFPAVLQSSGLYSLSSVVTVPSSSLGTQTYICNVNHKPSNTKVDKRVEPKSCDKTHTCPPCPAPEAAGGPSVFLFPPKPKDTLMISRTPEVTCVVVDVSHEDPEVKFNWYVDGVEVHNAKTKPREEQYNSTYRVVSVLTVLHQDWLNGKEYKCKVSNEALPAPISKTISKAKGQPREPQVYTLPPSREEMTKNQVSLTCLVKGFYPSDIAVEWESNGQPENNYKTTPPVLDSDGSFFLYSKLTVDKSRWQQGNVFSCSVMHEALHNHYTQKSLSLSP
light: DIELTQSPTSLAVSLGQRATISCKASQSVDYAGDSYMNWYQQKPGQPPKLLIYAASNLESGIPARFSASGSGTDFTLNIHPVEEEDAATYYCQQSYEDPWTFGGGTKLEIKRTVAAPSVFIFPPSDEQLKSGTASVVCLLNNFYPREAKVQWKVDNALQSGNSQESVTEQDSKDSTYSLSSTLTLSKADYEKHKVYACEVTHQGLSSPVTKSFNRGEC
B10: LALA + KDES (antibody, human IgG1, kappa, L234A L235A)
heavy chain: EVQLVESGGGSVKPGGSLKLSCAASGFTFSDHYMYWVRQTPEKRLEWVAIISGGGSYTSYPDSMKGRFTISRDNAKNILHLQMSSLKSEDTAMYYCTRESNGKPGFAYWGQGTLVTVSAASTKGPSVFPLAPSSKSTSGGTAALGCLVKDYFPEPVTVSWNSGALTSGVHTFPAVLQSSGLYSLSSVVTVPSSSLGTQTYICNVNHKPSNTKVDKRVEPKSCDKTHTCPPCPAPEAAGGPSVFLFPPKPKDTLMISRTPEVTCVVVDVSHEDPEVKFNWYVDGVEVHNAKTKPREEQYNSTYRVVSVLTVLHQDWLNGKEYKCKVSNDALPAPISKTISKAKGQPREPQVYTLPPSREEMTKNQVSLTCLVKGFYPSDIAVEWESNGQPENNYKTTPPVLDSDGSFFLYSKLTVDKSRWQQGNVFSCSVMHEALHNHYTQKSLSLSP
light chain: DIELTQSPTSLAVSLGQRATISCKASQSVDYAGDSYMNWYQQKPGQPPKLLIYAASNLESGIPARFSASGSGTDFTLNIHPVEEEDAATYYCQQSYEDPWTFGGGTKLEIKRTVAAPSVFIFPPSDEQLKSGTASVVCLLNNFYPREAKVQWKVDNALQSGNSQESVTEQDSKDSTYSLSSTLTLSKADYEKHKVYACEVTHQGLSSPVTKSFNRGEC
notes: also called Anti-CD154 antibody (SLAPH0336a/SLAPL0336a) with Fc variant LALA+KDES (SG1096); SG1096

Assays:
[1] = molecular target: T1, Recombinant soluble E protein (0.8E-His) from DENV-3 (DENV-3, UniProt P27915 281-673); experiment: SPR, Biacore T200
T1 construct: also called DENV-3 E protein; DV3

[2] = molecular target: T2, Recombinant soluble E protein (0.8E-His) from DENV-1 (DENV-1, UniProt P27909 281-675)
T2 construct: also called DENV-1 E protein; DV1

[3] = molecular target: T3, Recombinant soluble E protein (0.8E-His) from DENV-2 (DENV-2, UniProt P14340 281-675)
T3 construct: also called DENV-2 E protein; DV2

[4] = molecular target: T4, Recombinant soluble E protein (0.8E-His) from DENV-4 (DENV-4, UniProt P09866 280-674)
T4 construct: also called DENV-4 E protein; DV4

[5] = molecular target: T1, Recombinant soluble E protein …
human C1q (Calbiochem) = human C1q (Calbiochem) (human, UniProt P02745 23-245; P02746 28-253; P02747 29-245); experiment: ELISA: antibody coated on the plate at the concentration shown, human C1q added, detected with HRP anti-human C1q, OD 450 nm
[6] = molecular target: mouse C1q (from 10% mouse plasma) (mouse, UniProt P98086 23-245; P14106 26-253; Q02105 30-246); experiment: ELISA: antibody coated on the plate at the concentration shown, 10% mouse plasma added, detected with biotinylated anti-mouse C1q and streptavidin-HRP, OD 405 nm
human FcγRIa = molecular target: T5, human FcγRIa (human, UniProt P12314 16-292); experiment: SPR (Biacore T200, pH 7.4, 25 °C): His-tagged FcγR captured by anti-His antibody; antibody injected at 100 nM alone (Ab alone) or as 1:1 complex with trimeric CD154 (CD154 IC); binding level / capture level [A]
T5 construct: also called human FcγR1a

human FcγRIIIa (158V) = molecular target: T6, human FcγRIIIa (158V) (human, UniProt P08637 17-208); experiment: SPR (Biacore T200, pH 7.4, 25 °C): His-tagged FcγR captured by anti-His antibody; antibody injected at 100 nM alone (Ab alone) or as 1:1 complex with trimeric CD154 (CD154 IC); binding level / capture level [F]
T6 construct: also called human FcγR3a allelic variant 158V
T6 sequence (P08637 other isoform, or with tags, fused parts or gaps limits assumed): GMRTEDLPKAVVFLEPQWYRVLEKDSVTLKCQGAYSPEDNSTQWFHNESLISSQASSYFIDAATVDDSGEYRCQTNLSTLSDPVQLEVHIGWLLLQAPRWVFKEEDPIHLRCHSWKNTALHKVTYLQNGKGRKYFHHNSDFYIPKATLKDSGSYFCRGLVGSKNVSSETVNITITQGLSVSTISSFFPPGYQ

human C1q (Calbiochem), sequence (P02745 23-245 limits assumed, chain 1 of 3): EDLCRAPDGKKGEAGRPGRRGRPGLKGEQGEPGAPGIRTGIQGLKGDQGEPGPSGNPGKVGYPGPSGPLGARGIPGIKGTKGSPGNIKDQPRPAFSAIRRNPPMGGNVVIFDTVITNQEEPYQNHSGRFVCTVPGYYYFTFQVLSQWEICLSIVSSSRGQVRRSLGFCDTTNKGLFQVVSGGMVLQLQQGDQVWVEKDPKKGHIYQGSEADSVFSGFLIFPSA
human C1q (Calbiochem), sequence (P02746 28-253 limits assumed, chain 2 of 3): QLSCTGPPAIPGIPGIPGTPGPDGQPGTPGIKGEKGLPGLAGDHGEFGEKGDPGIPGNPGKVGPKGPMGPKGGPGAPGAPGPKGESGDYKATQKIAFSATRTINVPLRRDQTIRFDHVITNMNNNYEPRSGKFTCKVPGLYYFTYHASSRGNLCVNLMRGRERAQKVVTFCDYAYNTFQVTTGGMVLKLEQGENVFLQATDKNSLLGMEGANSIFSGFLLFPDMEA
human C1q (Calbiochem), sequence (P02747 29-245 limits assumed, chain 3 of 3): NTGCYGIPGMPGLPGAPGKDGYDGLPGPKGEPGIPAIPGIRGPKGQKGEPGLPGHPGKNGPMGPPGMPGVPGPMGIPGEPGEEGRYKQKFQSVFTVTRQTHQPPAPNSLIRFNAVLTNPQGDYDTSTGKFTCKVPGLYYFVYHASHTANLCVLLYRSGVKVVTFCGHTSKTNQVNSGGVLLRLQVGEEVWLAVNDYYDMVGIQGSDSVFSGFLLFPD
mouse C1q (from 10% mouse plasma), sequence (P98086 23-245 limits assumed, chain 1 of 3): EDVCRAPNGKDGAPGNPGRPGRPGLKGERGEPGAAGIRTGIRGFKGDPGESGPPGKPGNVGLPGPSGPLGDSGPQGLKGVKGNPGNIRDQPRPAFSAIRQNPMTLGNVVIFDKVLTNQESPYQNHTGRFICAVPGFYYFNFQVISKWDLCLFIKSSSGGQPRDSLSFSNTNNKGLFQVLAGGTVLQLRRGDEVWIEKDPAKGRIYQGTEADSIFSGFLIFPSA
mouse C1q (from 10% mouse plasma), sequence (P14106 26-253 limits assumed, chain 2 of 3): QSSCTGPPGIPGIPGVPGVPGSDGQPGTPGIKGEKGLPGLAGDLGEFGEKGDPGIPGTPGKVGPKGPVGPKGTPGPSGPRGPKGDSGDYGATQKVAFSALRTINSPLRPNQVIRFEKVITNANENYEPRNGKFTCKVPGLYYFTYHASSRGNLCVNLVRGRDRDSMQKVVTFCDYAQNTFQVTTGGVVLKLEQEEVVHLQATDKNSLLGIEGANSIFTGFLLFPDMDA
mouse C1q (from 10% mouse plasma), sequence (Q02105 30-246 limits assumed, chain 3 of 3): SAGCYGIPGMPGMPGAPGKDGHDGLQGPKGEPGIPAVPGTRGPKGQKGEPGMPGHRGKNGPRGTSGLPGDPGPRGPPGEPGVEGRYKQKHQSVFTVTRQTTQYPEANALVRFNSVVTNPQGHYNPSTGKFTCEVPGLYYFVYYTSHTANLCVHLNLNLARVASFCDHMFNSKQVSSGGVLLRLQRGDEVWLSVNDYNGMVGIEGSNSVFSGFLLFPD
T5 sequence (P12314 16-292 limits assumed): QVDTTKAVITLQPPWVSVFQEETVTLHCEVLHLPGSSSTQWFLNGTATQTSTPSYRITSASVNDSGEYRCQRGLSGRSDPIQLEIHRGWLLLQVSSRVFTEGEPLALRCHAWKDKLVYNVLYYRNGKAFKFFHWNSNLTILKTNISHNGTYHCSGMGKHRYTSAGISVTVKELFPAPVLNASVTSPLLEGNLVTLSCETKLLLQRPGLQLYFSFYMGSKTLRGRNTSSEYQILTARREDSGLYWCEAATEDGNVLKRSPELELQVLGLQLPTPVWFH

Binder | binding result [1] | Kd [2] | Kd [3] | Kd [4] | binding result (human C1q (Calbiochem)) | also measured
B1 | binds | 1.85 nM | 0.811 nM | 8.78 nM | – | –
B2 | – | 13.4 nM | 4.43 nM | 11.8 nM | – | Kd [5]: 3.52 nM
B3 | binds | 1.91 nM | 1.04 nM | 12.2 nM | – | –
B4 | binds | 1.26 nM | 1.03 nM | 8.26 nM | – | –
B5 | binds | 1.88 nM | 0.922 nM | 8.21 nM | – | –
B6 | – | 11.1 nM | 4.73 nM | 8.35 nM | – | Kd [5]: 4.03 nM
B7 | – | – | – | – | binds | binding result [6]: binds; binding result (human FcγRIa): binds; binding result (human FcγRIIIa (158V)): binds
B8 | – | – | – | – | binds | –
B9 | – | – | – | – | binds | –
B10 | – | – | – | – | binds | –
